Target: human µ opiate receptor (human)

adenyl cyclase activity (cAMP radioimmunoassay) in forskolin-stimulated COS cells: > 30%
Substance: (D-ala^2, N-methyl-phe^4, glyol^5) enkephalin (peptide)

Source: patent US6258556
